Article PMC3937676, “Dynamics of Inter-heavy Chain Interactions in Human Immunoglobulin G (IgG) Subclasses Studied by Kinetic Fab Arm Exchange^([image sbox.jpg])” (The Journal of Biological Chemistry, 2014)
Values belong to the molecule of their own block, whether it stands above or below them.

Columns and labels:
[1] = target: G3*01 Fc fragment (CH2CH3 of IgG3 allele IGHG3*01, G3m(b*), with an IgG4 hinge) (human); test: FRET or BRET; real-time half-molecule exchange of Fc fragments; 4 μg/ml Fc-488 and Fc-594 in PBS-P, each 1 h at 37 °C with 3 mM DTT, then mixed in equal volumes, 37 °C (IgG4-Fc-V397M/K392N at 10 μg/ml final); kobs taken as the CH3-CH3 dissociation rate (dimer to single chains)
[2] = target: human IgG1 antibody, half-molecule (heavy chain plus light chain) after reduction of the hinge disulfide bonds (human); test: FRET or BRET; real-time Fab arm (half-molecule) exchange of whole IgG; equimolar DyLight488- and DyLight594-labelled antibody, inter-heavy chain disulfide bonds fully reduced with DTT, 37 °C; first-order exponential fit; kobs taken as the CH3-CH3 dissociation rate (dimer to half-molecules)
[3] = target: human IgG2 antibody, half-molecule (heavy chain plus light chain) after reduction of the hinge disulfide bonds (human); test: SEC; fluorescence-assisted HPLC; reduced (10 mM DTT) and alkylated (iodoacetamide) IgG, serial 4-fold dilutions 0.001-300 nM half-molecules with a small fixed dose of the DyLight-488 labelled equivalent, PBS with 0.1 mg/ml certolizumab pegol and 0.02% Tween 20, 37 °C up to 3 days; Superdex 200; dimer to half-molecules
[4] = target: human IgG2 antibody, half-molecule (heavy chain plus light chain) after reduction of the hinge disulfide bonds (human); test: FRET or BRET; real-time Fab arm (half-molecule) exchange of whole IgG; equimolar DyLight488- and DyLight594-labelled antibody, inter-heavy chain disulfide bonds fully reduced with DTT, 37 °C; first-order exponential fit; kobs taken as the CH3-CH3 dissociation rate (dimer to half-molecules)
[5] = target: human IgG3 antibody (IGHG3*01), half-molecule (heavy chain plus light chain) after reduction of the hinge disulfide bonds (human); test: as above
[6] = target: human IgG4 antibody, half-molecule (heavy chain plus light chain) after reduction of the hinge disulfide bonds (human); test: as above
[7] = target: the molecule itself; test: FRET or BRET; real-time half-molecule exchange of Fc fragments; 4 μg/ml Fc-488 and Fc-594 in PBS-P, each 1 h at 37 °C with 3 mM DTT, then mixed in equal volumes, 37 °C (IgG4-Fc-V397M/K392N at 10 μg/ml final); kobs taken as the CH3-CH3 dissociation rate (dimer to single chains)
[8] = target: the molecule itself; test: FRET or BRET; equilibrium; 2-fold dilutions of equimolar Fc-488 and Fc-594, 2 h at 37 °C with 3 mM DTT; F620/F588 against total half-molecules; homodimerization model; dimer to single chains

Molecule: human IgG2 antibody, half-molecule (heavy chain plus light chain) after reduction of the hinge disulfide bonds
Kd [3]: 23 pM | half-life of dissociation (t1/2) [4]: 6.5 h | koff [4]: 3e-05 s⁻¹

Molecule: human IgG4 antibody, half-molecule (heavy chain plus light chain) after reduction of the hinge disulfide bonds
half-life of dissociation (t1/2) [6]: 6 min | koff [6]: 0.0018 s⁻¹

B1: G2-M397V Fc fragment (CH2CH3 of IgG2 with M397V, IgG4 hinge) (domain or fragment)
chain: ESKYGPPCPSCPAPPVAGPSVFLFPPKPKDTLMISRTPEVTCVVVDVSHEDPEVQFNWYVDGVEVHNAKTKPREEQFNSTFRVVSVLTVVHQDWLNGKEYKCKVSNKGLPAPIEKTISKTKGQPREPQVYTLPPSREEMTKNQVSLTCLVKGFYPSDISVEWESNGQPENNYKTTPPVLDSDGSFFLYSKLTVDKSRWQQGNVFSCSVMHEALHNHYTQKSLSLSPGK
modifications: DyLight 488 or DyLight 594 amine reactive dye (average degree of labeling ~2 for Fc fragments); hinge disulfide bonds reduced with DTT
koff [7]: < 1e-06 s⁻¹

B2: IgG4-V397M/K392N Fc fragment (domain or fragment)
chain: ESKYGPPCPSCPAPEFLGGPSVFLFPPKPKDTLMISRTPEVTCVVVDVSQEDPEVQFNWYVDGVEVHNAKTKPREEQFNSTYRVVSVLTVLHQDWLNGKEYKCKVSNKGLPSSIEKTISKAKGQPREPQVYTLPPSQEEMTKNQVSLTCLVKGFYPSDIAVEWESNGQPENNYNTTPPMLDSDGSFFLYSRLTVDKSRWQEGNVFSCSVMHEALHNHYTQKSLSLSLGK
modifications: DyLight 488 or DyLight 594 amine reactive dye (average degree of labeling ~2 for Fc fragments); hinge disulfide bonds reduced with DTT
Kd [8]: 2.3 µM | koff [7]: 0.16 s⁻¹

B3: G3*03 Fc fragment (CH2CH3 of IgG3 allele IGHG3*03, G3m(c3c5*), with an IgG4 hinge) (domain or fragment)
chain: ESKYGPPCPSCPAPELLGGPSVFLFPPKPKDTLMISRTPEVTCVVVDVSHEDPEVQFKWYVDGVEVHNAKTKPREEQYNSTFRVVSVLTVLHQDWLNGKEYKCKVSNKALPAPIEKTISKTKGQPREPQVYTLPPSREEMTKNQVSLTCLVKGFYPSDIAVEWESSGQPENNYNTTPPVLDSDGSFFLYSRLTVDKSRWQEGNVFSCSVMHEALHNRFTQKSLSLSPGK
modifications: DyLight 488 or DyLight 594 amine reactive dye (average degree of labeling ~2 for Fc fragments); hinge disulfide bonds reduced with DTT
fold faster dissociation than IgG4 (m17) [7]: ~15 fold

The next lines start with the values.

fold faster dissociation than G3*06 [1]: > 10 fold
Molecule: G3*01 Fc fragment (CH2CH3 of IgG3 allele IGHG3*01, G3m(b*), with an IgG4 hinge) (domain or fragment)

half-life of dissociation (t1/2) [2]: 384 h | koff [2]: 5e-07 s⁻¹
Molecule: human IgG1 antibody, half-molecule (heavy chain plus light chain) after reduction of the hinge disulfide bonds

half-life of dissociation (t1/2) [5]: 0.467 h | koff [5]: 0.0004 s⁻¹
Molecule: human IgG3 antibody (IGHG3*01), half-molecule (heavy chain plus light chain) after reduction of the hinge disulfide bonds
